B1: VH SEQ ID NO 538 / VL SEQ ID NO 374 (antibody, IgG4, V domains shown)
VH: QVQLQESGPGLVEPSQTLSLTCTVSGYSITSDSAWSWIRQPPGKKLEWIGYIQYSGSTNYNPSLKSRVTISRDTSKNQFSLKLSSVTAADTAVYYCARSVNYYGNSFAVGYWGQGTLVTVSS
VL: EIVLTQSPATLSLSPGERATLSCRASQGLSDYLAWYQQKPGQAPRLLIKYTSQPATGIPARFSGSGSGTDFTLTISSLEPEDFAVYYCQNGHSFPLTFGQGTKLEIK
notes: humanized 11F2; IgG4 S228P/kappa
B2: VH SEQ ID NO 538 / VL SEQ ID NO 398 (antibody, IgG4, V domains shown)
VH: QVQLQESGPGLVEPSQTLSLTCTVSGYSITSDSAWSWIRQPPGKKLEWIGYIQYSGSTNYNPSLKSRVTISRDTSKNQFSLKLSSVTAADTAVYYCARSVNYYGNSFAVGYWGQGTLVTVSS
VL: EIVLTQSPATLSLSPGERATLSCRASQGVSDYLAWYQQKPGEAPRLLIKYTSQPATGIPARFSGSGSGTDFTLTISSLEPEDFAVYYCQNGHSFPLTFGQGTKLEIK
notes: as for B1
B3: VH SEQ ID NO 538 / VL SEQ ID NO 390 (antibody, IgG4, V domains shown)
VH: QVQLQESGPGLVEPSQTLSLTCTVSGYSITSDSAWSWIRQPPGKKLEWIGYIQYSGSTNYNPSLKSRVTISRDTSKNQFSLKLSSVTAADTAVYYCARSVNYYGNSFAVGYWGQGTLVTVSS
VL: EIVLTQSPATLSLSPGERATLSCRASQGVSDYLAWYQQKPGEAPRLLIKYASQPATGIPARFSGSGSGTDFTLTISSLEPEDFAVYYCQNGHSFPLTFGQGTKLEIK
notes: as for B1
B4: VH SEQ ID NO 538 / VL SEQ ID NO 430 (antibody, IgG4, V domains shown)
VH: QVQLQESGPGLVEPSQTLSLTCTVSGYSITSDSAWSWIRQPPGKKLEWIGYIQYSGSTNYNPSLKSRVTISRDTSKNQFSLKLSSVTAADTAVYYCARSVNYYGNSFAVGYWGQGTLVTVSS
VL: EIVLTQSPATLSLSPGERATLSCRASQGVSDYLAWYQQKPGQAPRLLIKYASQPATGIPARFSGSGSGTDFTLTISSLEPEDFGVYYCQNGHSFPLTFGQGTKLEIK
notes: as for B1
B5: VH SEQ ID NO 538 / VL SEQ ID NO 414 (antibody, IgG4, V domains shown)
VH: QVQLQESGPGLVEPSQTLSLTCTVSGYSITSDSAWSWIRQPPGKKLEWIGYIQYSGSTNYNPSLKSRVTISRDTSKNQFSLKLSSVTAADTAVYYCARSVNYYGNSFAVGYWGQGTLVTVSS
VL: EIVLTQSPATLSLSPGERATLSCRASQGVSDYLAWYQQKPGQAPRLLIKYASQPATGIPARFSGSGSGTDFTLTISSLEPEDFAVYYCQNGHSFPLTFGQGTKLEIK
notes: as for B1
B6: VH SEQ ID NO 538 / VL SEQ ID NO 382 (antibody, IgG4, V domains shown)
VH: QVQLQESGPGLVEPSQTLSLTCTVSGYSITSDSAWSWIRQPPGKKLEWIGYIQYSGSTNYNPSLKSRVTISRDTSKNQFSLKLSSVTAADTAVYYCARSVNYYGNSFAVGYWGQGTLVTVSS
VL: EIVLTQSPATLSLSPGERATLSCRASQGLSDYLHWYQQKPGEAPRLLIKYASQPATGIPARFSGSGSGTDFTLTISSLEPEDFAVYYCQNGHSFPLTFGQGTKLEIK
notes: as for B1
B7: VH SEQ ID NO 546 / VL SEQ ID NO 318 (antibody, IgG4, V domains shown)
VH: QVQLQESGPGLVEPSQTLSLTCTVSGYSITSDSAWSWIRQPPGKKLEWIGYIQYSGSTNYNPSLKSRVTISRDTSKNQFSLKLSSVTAADTAVYYCARSVNYYGNSFAVGYWGQGTSVTVSS
VL: EIVLTQSPATLSLSPGERATLSCRASQGISDYLHWYQQKPGEAPRLLIKYTSQPATGIPARFSGSGSGTDFTLTISSLEPEDFAVYYCQNGHSFPLTFGQGTKLEIK
notes: as for B1
B8: VH SEQ ID NO 546 / VL SEQ ID NO 310 (antibody, IgG4, V domains shown)
VH: QVQLQESGPGLVEPSQTLSLTCTVSGYSITSDSAWSWIRQPPGKKLEWIGYIQYSGSTNYNPSLKSRVTISRDTSKNQFSLKLSSVTAADTAVYYCARSVNYYGNSFAVGYWGQGTSVTVSS
VL: EIVLTQSPATLSLSPGERATLSCRASQGISDYLAWYQQKPGQAPRLLIKYASQPATGIPARFSGSGSGTDFTLTISSLEPEDFAVYYCQNGHSFPLTFGQGTKLEIK
notes: as for B1
B9: VH SEQ ID NO 538 / VL SEQ ID NO 470 (antibody, IgG4, V domains shown)
VH: QVQLQESGPGLVEPSQTLSLTCTVSGYSITSDSAWSWIRQPPGKKLEWIGYIQYSGSTNYNPSLKSRVTISRDTSKNQFSLKLSSVTAADTAVYYCARSVNYYGNSFAVGYWGQGTLVTVSS
VL: EIVLTQSPATLSLSPGERATLSCRASQGVSDYLHWYQQKPGQAPRLLIKYASQPATGIPARFSGSGSGTDFTLTISSLEPEDFAVYYCQNGHSFPLTFGQGTKLEIK
notes: as for B1
B10: VH SEQ ID NO 538 / VL SEQ ID NO 454 (antibody, IgG4, V domains shown)
VH: QVQLQESGPGLVEPSQTLSLTCTVSGYSITSDSAWSWIRQPPGKKLEWIGYIQYSGSTNYNPSLKSRVTISRDTSKNQFSLKLSSVTAADTAVYYCARSVNYYGNSFAVGYWGQGTLVTVSS
VL: EIVLTQSPATLSLSPGERATLSCRASQGVSDYLHWYQQKPGEAPRLLIKYASQPATGIPARFSGSGSGTDFTLTISSLEPEDFAVYYCQNGHSFPLTFGQGTKLEIK
notes: as for B1
B11: VH SEQ ID NO 538 / VL SEQ ID NO 494 (antibody, IgG4, V domains shown)
VH: QVQLQESGPGLVEPSQTLSLTCTVSGYSITSDSAWSWIRQPPGKKLEWIGYIQYSGSTNYNPSLKSRVTISRDTSKNQFSLKLSSVTAADTAVYYCARSVNYYGNSFAVGYWGQGTLVTVSS
VL: EIVLTQSPATLSLSPGERATLSCRASQGVSDYLHWYQQKPGQAPRLLIKYASQPATGIPARFSGSGSGTDFTLTISSLEPEDVAVYYCQNGHSFPLTFGQGTKLEIK
notes: as for B1
B12: VH SEQ ID NO 538 / VL SEQ ID NO 406 (antibody, IgG4, V domains shown)
VH: QVQLQESGPGLVEPSQTLSLTCTVSGYSITSDSAWSWIRQPPGKKLEWIGYIQYSGSTNYNPSLKSRVTISRDTSKNQFSLKLSSVTAADTAVYYCARSVNYYGNSFAVGYWGQGTLVTVSS
VL: EIVLTQSPATLSLSPGERATLSCRASQGVSDYLAWYQQKPGQAPRLLIKYASQPATGIPARFSGSGSGTDFTLTISSLEPEDFAVYYCQNGHSFPLTFGAGTKLEIK
notes: as for B1
B13: VH SEQ ID NO 546 / VL SEQ ID NO 326 (antibody, IgG4, V domains shown)
VH: QVQLQESGPGLVEPSQTLSLTCTVSGYSITSDSAWSWIRQPPGKKLEWIGYIQYSGSTNYNPSLKSRVTISRDTSKNQFSLKLSSVTAADTAVYYCARSVNYYGNSFAVGYWGQGTSVTVSS
VL: EIVLTQSPATLSLSPGERATLSCRASQGISDYLHWYQQKPGEAPRLLIKYTSQPATGIPARFSGSGSGTDFTLTISSLEPEDFGVYYCQNGHSFPLTFGAGTKLELK
notes: as for B1
B14: VH SEQ ID NO 538 / VL SEQ ID NO 462 (antibody, IgG4, V domains shown)
VH: QVQLQESGPGLVEPSQTLSLTCTVSGYSITSDSAWSWIRQPPGKKLEWIGYIQYSGSTNYNPSLKSRVTISRDTSKNQFSLKLSSVTAADTAVYYCARSVNYYGNSFAVGYWGQGTLVTVSS
VL: EIVLTQSPATLSLSPGERATLSCRASQGVSDYLHWYQQKPGQAPRLLIKYASQPATGIPARFSGSGSGTDFTLTISSLEPEDFAVYYCQNGHSFPLTFGAGTKLEIK
notes: as for B1
B15: VH SEQ ID NO 538 / VL SEQ ID NO 446 (antibody, IgG4, V domains shown)
VH: QVQLQESGPGLVEPSQTLSLTCTVSGYSITSDSAWSWIRQPPGKKLEWIGYIQYSGSTNYNPSLKSRVTISRDTSKNQFSLKLSSVTAADTAVYYCARSVNYYGNSFAVGYWGQGTLVTVSS
VL: EIVLTQSPATLSLSPGERATLSCRASQGVSDYLAWYQQKPGQAPRLLIKYTSQPATGIPARFSGSGSGTDFTLTISSLEPEDFAVYYCQNGHSFPLTFGQGTKLEIK
notes: as for B1
B16: VH SEQ ID NO 538 / VL SEQ ID NO 422 (antibody, IgG4, V domains shown)
VH: QVQLQESGPGLVEPSQTLSLTCTVSGYSITSDSAWSWIRQPPGKKLEWIGYIQYSGSTNYNPSLKSRVTISRDTSKNQFSLKLSSVTAADTAVYYCARSVNYYGNSFAVGYWGQGTLVTVSS
VL: EIVLTQSPATLSLSPGERATLSCRASQGVSDYLAWYQQKPGQAPRLLIKYASQPATGIPARFSGSGSGTDFTLTISSLEPEDFAVYYCQQGHSFPLTFGQGTKLEIK
notes: as for B1
B17: VH SEQ ID NO 538 / VL SEQ ID NO 478 (antibody, IgG4, V domains shown)
VH: QVQLQESGPGLVEPSQTLSLTCTVSGYSITSDSAWSWIRQPPGKKLEWIGYIQYSGSTNYNPSLKSRVTISRDTSKNQFSLKLSSVTAADTAVYYCARSVNYYGNSFAVGYWGQGTLVTVSS
VL: EIVLTQSPATLSLSPGERATLSCRASQGVSDYLHWYQQKPGQAPRLLIKYASQPATGIPARFSGSGSGTDFTLTISSLEPEDFAVYYCQQGHSFPLTFGQGTKLEIK
notes: as for B1
B18: VH SEQ ID NO 538 / VL SEQ ID NO 502 (antibody, IgG4, V domains shown)
VH: QVQLQESGPGLVEPSQTLSLTCTVSGYSITSDSAWSWIRQPPGKKLEWIGYIQYSGSTNYNPSLKSRVTISRDTSKNQFSLKLSSVTAADTAVYYCARSVNYYGNSFAVGYWGQGTLVTVSS
VL: EIVLTQSPATLSLSPGERATLSCRASQGVSDYLHWYQQKPGQAPRLLIKYTSQPATGIPARFSGSGSGTDFTLTISSLEPEDFAVYYCQNGHSFPLTFGQGTKLEIK
notes: as for B1
B19: VH SEQ ID NO 538 / VL SEQ ID NO 438 (antibody, IgG4, V domains shown)
VH: QVQLQESGPGLVEPSQTLSLTCTVSGYSITSDSAWSWIRQPPGKKLEWIGYIQYSGSTNYNPSLKSRVTISRDTSKNQFSLKLSSVTAADTAVYYCARSVNYYGNSFAVGYWGQGTLVTVSS
VL: EIVLTQSPATLSLSPGERATLSCRASQGVSDYLAWYQQKPGQAPRLLIKYASQPATGIPARFSGSGSGTDFTLTISSLEPEDVAVYYCQNGHSFPLTFGQGTKLEIK
notes: as for B1
B20: VH SEQ ID NO 538 / VL SEQ ID NO 486 (antibody, IgG4, V domains shown)
VH: QVQLQESGPGLVEPSQTLSLTCTVSGYSITSDSAWSWIRQPPGKKLEWIGYIQYSGSTNYNPSLKSRVTISRDTSKNQFSLKLSSVTAADTAVYYCARSVNYYGNSFAVGYWGQGTLVTVSS
VL: EIVLTQSPATLSLSPGERATLSCRASQGVSDYLHWYQQKPGQAPRLLIKYASQPATGIPARFSGSGSGTDFTLTISSLEPEDFGVYYCQNGHSFPLTFGQGTKLEIK
notes: as for B1

The test addresses T1, recombinant human activated Factor VII (FVIIa) (human, UniProt P08709 61-212; P08709 213-466, ten glutamate residues of the Gla domain may be gamma-carboxylated).
T1 construct: chains tethered by a disulfide bond; also called Factor VIIa; rFVIIa
T1 sequence 1: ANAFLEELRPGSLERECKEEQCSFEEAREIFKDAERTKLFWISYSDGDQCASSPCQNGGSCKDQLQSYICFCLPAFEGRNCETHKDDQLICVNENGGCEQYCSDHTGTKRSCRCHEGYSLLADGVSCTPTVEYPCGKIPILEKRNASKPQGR
T1 sequence 2: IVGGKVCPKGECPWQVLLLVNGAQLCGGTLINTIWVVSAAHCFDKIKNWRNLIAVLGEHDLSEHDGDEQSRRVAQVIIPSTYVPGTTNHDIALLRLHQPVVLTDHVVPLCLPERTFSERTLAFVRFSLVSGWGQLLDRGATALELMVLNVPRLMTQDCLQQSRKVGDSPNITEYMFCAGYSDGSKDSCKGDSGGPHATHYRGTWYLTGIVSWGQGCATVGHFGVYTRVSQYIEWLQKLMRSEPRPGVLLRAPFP
The test can be described thus: BLI (Fortebio). (BLI is a label-free optical method that tracks binding on a fibre tip over time.)
Consider B1, for which the Kd turned out to be 7.4 nM.
Turning to B2, the Kd turned out to be 11 nM.
In the case of B3 it was 7 nM; in that of B4, 8.3 nM.
As for B5, the figure is 6.9 nM; as for B6, 1.2 nM.
As for B7, the figure is 0.86 nM; as for B8, 3.2 nM.
On to B9, for which the Kd came out at 1 nM.
As to B10, the equilibrium dissociation constant (Kd) was determined as 1.2 nM.
In the case of B11 it was 1.1 nM; in that of B12, 6.1 nM; in that of B13, 0.81 nM.
B14: the Kd stood at 1.3 nM.
In the case of B15 it was 12 nM.
For the molecule B16, the Kd worked out at 21 nM.
In the case of B17, the Kd amounted to 1.8 nM.
In the case of B18 it was 0.88 nM; in that of B19, 8.3 nM.
For the molecule B20, the Kd was 1 nM.

For orientation: Kd means the constant that tells how readily two partners part at equilibrium.

The values are drawn from patent publication US20220064329A1 (Novo Nordisk, published 2022).
